Measurements: US12252534 (Scripps Research, dated 2025)

What was measured:
[1] = target: T1, human CD3 on human T cells (Jurkat) (human, UniProt P07766 23-207; P04234 22-171; P09693 23-182); experiment: flow cytometry, Jurkat cells, 8 nM antibody
T1 construct: whole, on cells; also called huCD3+; cell surface CD3 on human (Jurkat) T cells
Description: (§1) To express humanized Fabs in mammalian cells, VH genes (VH1 and VH2) and VL genes (VL1~VL10) shown in FIG. 2 were individually cloned into the pFUSE vector under the IL2 signal peptide sequence. Light and heavy chains expression vectors were used to co-transfect Expi293F cells according to manufacturer's protocol. On day 3 or 4, cultured media was harvested and secreted Fabs were purified by Protein G chromatography. Binding affinity of humanized candidates for human and cynomolgus T cells were evaluated by flow cytometry. Briefly, cells were incubated with humanized Fabs at 4° C. for 30 min and washed twice with staining buffer (1% BSA in PBS). […] After several washes, samples were acquired on a BD LSR II or BD Accuri C6 and analyzed using FlowJo 7.6.2 software.

[2] = target: T1, human CD3 on human T cells (Jurkat); experiment: flow cytometry, Jurkat cells, 200 nM antibody
Description: as §1

[3] = target: T1, human CD3 on human T cells (Jurkat); experiment: flow cytometry, Jurkat cells, 0.32 nM antibody
Description: as §1

[4] = target: T1, human CD3 on human T cells (Jurkat); experiment: flow cytometry titration on Jurkat cells
Description: as §1

[5] = target: T1, human CD3 on human T cells (Jurkat); experiment: flow cytometry, Jurkat cells, 1000 nM antibody
Description: as §1

[6] = target: T1, human CD3 on human T cells (Jurkat); experiment: flow cytometry, Jurkat cells, 40 nM antibody
Description: as §1

[7] = target: T1, human CD3 on human T cells (Jurkat); experiment: flow cytometry, Jurkat cells, 0 nM antibody (background)
Description: as §1

[8] = target: T1, human CD3 on human T cells (Jurkat); experiment: flow cytometry, Jurkat cells, 1.6 nM antibody
Description: as §1

T1 sequence (P07766 23-207, chain 1 of 3): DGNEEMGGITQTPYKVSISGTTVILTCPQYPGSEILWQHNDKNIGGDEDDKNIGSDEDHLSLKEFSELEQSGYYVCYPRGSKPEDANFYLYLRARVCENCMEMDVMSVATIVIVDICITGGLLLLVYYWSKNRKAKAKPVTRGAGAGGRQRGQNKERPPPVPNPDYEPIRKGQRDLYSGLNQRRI
T1 sequence (P04234 22-171, chain 2 of 3): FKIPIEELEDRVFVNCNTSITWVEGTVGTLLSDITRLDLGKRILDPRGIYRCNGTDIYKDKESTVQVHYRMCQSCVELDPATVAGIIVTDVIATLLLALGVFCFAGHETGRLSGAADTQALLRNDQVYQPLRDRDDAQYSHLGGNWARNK
T1 sequence (P09693 23-182, chain 3 of 3): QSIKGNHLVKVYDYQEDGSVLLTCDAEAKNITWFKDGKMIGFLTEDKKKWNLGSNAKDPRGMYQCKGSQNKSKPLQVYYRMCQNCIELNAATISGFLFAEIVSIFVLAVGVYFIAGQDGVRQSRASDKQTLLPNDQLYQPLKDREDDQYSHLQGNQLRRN

Row | Binder | MFI [1] | MFI [2] | MFI [3] | IC50 [4] [nM] | MFI [5] | MFI [6] | MFI [7] | MFI [8]
1 | HuL3H2 (Fab, V domains shown, Humanized Fab expressed in Expi293F; also called VL3 + VH2 humanized Fab) VH: EVQLVESGGGLVQPGGSLKLSCAASGFTFNTYAMNWVRQASGKGLEWVARIRSKYNNYATYYADSVKDRFTISRDDSKNTLYLQMNSLKTEDTAVYYCVRHGNFGNSYVSWFAYWGQGTLVTVSS VL: QAVVTQEPSLTVSPGGTVTLTCGSSTGAVTTSNYANWVQQKPGQAFRGLIGGTNKRAPWTPARFSGSLLGGKAALTISGAQPEDEAEYYCALWYSNLWVFGGGTKLTVL | 610 | 643 | 600 | 17.7 | 666 | 650 | 559 | 610
2 | Murine anti-CD3 (antibody, V domains shown, also called murine anti-CD3 VL/VH) VH: EVQLVESGGGLVQPKGSLKLSCAASGFTFNTYAMNWVRQAPGKGLEWVARIRSKYNNYATYYADSVKDRFTISRDDSQSILYLQMNNLKTEDTAMYYCVRHGNFGNSYVSWFAYWGQGTLVTVSS VL: QAVVTQESALTTSPGETVTLTCRSSTGAVTTSNYANWVQEKPDHLFTGLIGGTNKRAPGVPARFSGSLIGDKAALTITGAQTEDEAIYFCALWYSNLWVFGGGTKLTVL | 28500 | 50600 | 3560 | 7.73 | 54400 | 41400 | 1400 | 10500
3 | HuL6H2 (Fab, V domains shown, Humanized Fab expressed in Expi293F; also called VL6 + VH2 humanized Fab) VH: EVQLVESGGGLVQPGGSLKLSCAASGFTFNTYAMNWVRQASGKGLEWVARIRSKYNNYATYYADSVKDRFTISRDDSKNTLYLQMNSLKTEDTAVYYCVRHGNFGNSYVSWFAYWGQGTLVTVSS VL: QAVVTQEPSLTVSPGGTVTLTCRSSTGAVTTSNYANWFQQKPDHLPRTLIYGTNKRAPGTPARFSGSLLGDKAALTISGAQPEDEAEYYCALWYSNLWVFGGGTKLTVL | 573 | 835 | 572 | 677 | 2200 | 598 | 559 | 597
4 | HuL9H2 (Fab, V domains shown, Humanized Fab expressed in Expi293F; also called VL9 + VH2 humanized Fab) VH: EVQLVESGGGLVQPGGSLKLSCAASGFTFNTYAMNWVRQASGKGLEWVARIRSKYNNYATYYADSVKDRFTISRDDSKNTLYLQMNSLKTEDTAVYYCVRHGNFGNSYVSWFAYWGQGTLVTVSS VL: QAVVTQEPSLTVSPGGTVTLTCGSSTGAVTTSNYANWVQQKPGQAFRGLIGGTNKRAPGVPDRFSGSLLGGKAALTISGAQPEDEAEYYCALWYSNLWVFGGGTKLTVL | 2760 | 27900 | 637 | 119 | 39400 | 9950 | 559 | 986
5 | HuL1H1 (Fab, V domains shown, Detected with anti-human kappa; also called VL1 + VH1 humanized Fab) VH: EVQLVESGGGLVQPGGSLKLSCAASGFTFNTYAMNWVRQASGKGLEWVGRIRSKYNNYATYYADSVKDRFTISRDDSKNTLYLQMNSLKTEDTAVYYCVRHGNFGNSYVSWFAYWGQGTLVTVSS VL: QAVVTQEPSLTVSPGGTVTLTCGSSTGAVTTSNYANWFQQKPGQAPRTLIYGTNKRAPWTPARFSGSLLGGKAALTISGAQPEDEAEYYCALWYSNLWVFGGGTKLTVL | 1450 | 1460 | 1400 | – | 1470 | 1450 | 1400 | 1440
6 | huL5H2 (heavy chain SEQ ID NO: 41 and light chain SEQ ID NO: 39) (Fab, V domains shown, also called VL5 kappa + H2 Fab) VH: EVQLVESGGGLVQPGGSLKLSCAASGFTFNTYAMNWVRQASGKGLEWVARIRSKYNNYATYYADSVKDRFTISRDDSKNTLYLQMNSLKTEDTAVYYCVRHGNFGNSYVSWFAYWGQGTLVTVSS VL: QAVVTQEPSLTVSPGGTVTLTCRSSTGAVTTSNYANWVQQKPDHLFRGLIGGTNKRAPGTPARFSGSLLGDKAALTISGAQPEDEAEYYCALWYSNLWVFGGGTKLTVLK | 31700 | 48000 | 4430 | 4.46 | 51800 | 41600 | 1400 | 13400
7 | HuL4H2 (Fab, V domains shown, Humanized Fab expressed in Expi293F; also called VL4 + VH2 humanized Fab) VH: EVQLVESGGGLVQPGGSLKLSCAASGFTFNTYAMNWVRQASGKGLEWVARIRSKYNNYATYYADSVKDRFTISRDDSKNTLYLQMNSLKTEDTAVYYCVRHGNFGNSYVSWFAYWGQGTLVTVSS VL: QAVVTQEPSLTVSPGGTVTLTCGSSTGAVTTSNYANWVQQKPGQAFRGLIYGTNKRAPWTPARFSGSLLGDKAALTISGAQPEDEAEYYCALWYSNLWVFGGGTKLTVL | 620 | 620 | 599 | – | 650 | 620 | 559 | 615
8 | HuL10H2 (Fab, V domains shown, Humanized Fab expressed in Expi293F; also called VL10 + VH2 humanized Fab) VH: EVQLVESGGGLVQPGGSLKLSCAASGFTFNTYAMNWVRQASGKGLEWVARIRSKYNNYATYYADSVKDRFTISRDDSKNTLYLQMNSLKTEDTAVYYCVRHGNFGNSYVSWFAYWGQGTLVTVSS VL: QAVVTQEPSLTTSPGGTVTLTCRSSTGAVTTSNYANWVQQKPDHLFTGLIGGTNKRAPGVPARFSGSLIGDKAALTISGAQPEDEAEYYCALWYSNLWVFGGGTKLTVL | 3270 | 31300 | 688 | 139 | 46300 | 12700 | 559 | 1610
9 | HuL8H2 (Fab, V domains shown, Humanized Fab expressed in Expi293F; also called VL8 + VH2 humanized Fab) VH: EVQLVESGGGLVQPGGSLKLSCAASGFTFNTYAMNWVRQASGKGLEWVARIRSKYNNYATYYADSVKDRFTISRDDSKNTLYLQMNSLKTEDTAVYYCVRHGNFGNSYVSWFAYWGQGTLVTVSS VL: QAVVTQEPSLTVSPGGTVTLTCGSSTGAVTTSNYANWVQQKPDHLFRGLIGGTNKRAPGTPARFSGSLLGGKAALTISGAQPEDEAEYYCALWYSNLWVFGGGTKLTVL | 7670 | 42000 | 837 | 78 | 54600 | 22000 | 559 | 2120
10 | HuL7H2 (Fab, V domains shown, Humanized Fab expressed in Expi293F; also called VL7 + VH2 humanized Fab) VH: EVQLVESGGGLVQPGGSLKLSCAASGFTFNTYAMNWVRQASGKGLEWVARIRSKYNNYATYYADSVKDRFTISRDDSKNTLYLQMNSLKTEDTAVYYCVRHGNFGNSYVSWFAYWGQGTLVTVSS VL: QAVVTQEPSLTVSPGGTVTLTCRSSTGAVTTSNYANWVQQKPGQAFRGLIGGTNKRAPGTPARFSGSLLGDKAALTISGAQPEDEAEYYCALWYSNLWVFGGGTKLTVL | 4240 | 28900 | 1570 | 70.4 | 35400 | 13600 | 1250 | 2040
11 | HuL2H2 (Fab, V domains shown, Humanized Fab expressed in Expi293F; also called VL2 + VH2 humanized Fab) VH: EVQLVESGGGLVQPGGSLKLSCAASGFTFNTYAMNWVRQASGKGLEWVARIRSKYNNYATYYADSVKDRFTISRDDSKNTLYLQMNSLKTEDTAVYYCVRHGNFGNSYVSWFAYWGQGTLVTVSS VL: QAVVTQEPSLTVSPGGTVTLTCGSSTGAVTTSNYANWVQQKPGQAFRGLIYGTNKRAPWTPARFSGSLLGGKAALTISGAQPEDEAEYYCALWYSNLWVFGGGTKLTVL | 1450 | 1460 | 1400 | – | 1470 | 1450 | 1400 | 1440
